Results taken from PMC8328229 (Methods in enzymology, 2021).
Primed or numbered codes have the meaning given here. Where no end group is shown, it is not given here. FITC′ = fluorescein

T1: MBP-tagged Methanocaldococcus jannaschii YcaO (Methanocaldococcus jannaschii, UniProt Q58494 1-385)
T1 sequence (looked up): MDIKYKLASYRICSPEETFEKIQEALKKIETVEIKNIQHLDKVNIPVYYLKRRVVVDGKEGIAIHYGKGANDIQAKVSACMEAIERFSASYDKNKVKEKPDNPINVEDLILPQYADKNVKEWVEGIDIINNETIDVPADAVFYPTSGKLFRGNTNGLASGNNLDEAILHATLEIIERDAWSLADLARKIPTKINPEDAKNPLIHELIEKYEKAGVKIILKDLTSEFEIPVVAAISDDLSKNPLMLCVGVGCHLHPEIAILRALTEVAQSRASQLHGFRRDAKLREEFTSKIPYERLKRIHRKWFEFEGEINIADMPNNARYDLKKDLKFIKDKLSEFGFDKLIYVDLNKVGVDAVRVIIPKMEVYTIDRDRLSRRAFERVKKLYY

B1: MBP-tagged McrA peptide, Ala substitution of Asp467 (peptide)
chain: RLGFFGFALQD
B2: MBP-tagged McrA peptide, Ala substitution of Gly462 (peptide)
chain: RLAFFGFDLQD
B3: MBP-tagged McrA peptide, Ala substitution of Leu461 (peptide)
chain: RAGFFGFDLQD
B4: wild-type MBP-tagged McrA peptide (M. acetivorans McrA 11-mer) (peptide)
chain: RLGFFGFDLQD
B5: MBP-tagged McrA peptide, Ala substitution of Gln469 (peptide)
chain: RLGFFGFDLAD
B6: MBP-tagged McrA peptide, Ala substitution of Leu468 (peptide)
chain: RLGFFGFDAQD
B7: MBP-tagged McrA peptide, Ala substitution of Gly465 (peptide)
chain: RLGFFAFDLQD
B8: FITC-labeled M. jannaschii McrA 13-mer peptide (GG-RLGFYGYDLQD) (peptide)
peptide: {FITC′}-GGRLGFYGYDLQD
B9: MBP-tagged McrA peptide, Ala substitution of Phe464 (peptide)
chain: RLGFAGFDLQD

Legend:
[1] = biological target: FITC-labeled M. acetivorans McrA 13-mer peptide (GG-…) (Methanosarcina acetivorans); assay: fluorescence polarisation
M. acetivorans TfuA = settings: FP; 25 °C, 1 h; ref Mahanta et al., 2018; cited from earlier work
MjYcaO = settings: cited from earlier work
[2] = biological target: MBP-tagged Methanosarcina acetivorans YcaO (Methanosarcina acetivorans); assay: fluorescence polarisation
[3] = biological target: T1, MBP-tagged Methanocaldococcus …; assay: fluorescence polarisation

| Molecule | fold reduction of affinity against the wild-type peptide [2] [fold] | other results |
| --- | --- | --- |
| MBP-tagged Methanosarcina acetivorans YcaO (enzyme) | – | Kd [1]: 700 nM |
| GG-RLGFFGFDLQD [native McrA peptide] | – | binding (M. acetivorans TfuA): not detected |
| Nc1ncnc2c1ncn2[C@@H]1O[C@H](COP(=O)(O)OP(=O)(O)OP(=O)(O)O)[C@@H](O)[C@H]1O [ATP] | – | ATP-derived by-products of thioamidation (MjYcaO; 31P NMR, YcaO-catalyzed thioamidation, ref Mahanta et al., 2018): ADP and phosphate (Pi) were found to be the by-products; ATP hydrolysis in the absence of the McrA peptide substrate (MjYcaO; absence of McrA peptide, ref Dong et al., 2019): YcaO can hydrolyze ATP to ADP and Pi unproductively |
| B1 | 12 | – |
| B2 | 14 | – |
| B3 | 28 | – |
| B4 | – | Ki [2]: 700 nM |
| B5 | 24 | – |
| B6 | 14 | – |
| B7 | 14 | – |
| B8 | – | Kd [3]: 1100 nM |
| B9 | 11 | – |
